Tested on: primary human cell cultures (11 cell types)
Assay: Custom gene array, 11 human cell types in normoxia or hypoxia for 6 hr and 18 hr;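 as to mRNA expression level, #1 HY 18 hr: cell type #1 is adipocyte from subcutaneous adult adipose tissue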;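 as to mRNA expression level, #1 HY 6 hr: cell type #1 is adipocyte from subcutaneous adult adipose tissue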;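 as to mRNA expression level, #1 NO: cell type #1 is adipocyte from subcutaneous adult adipose tissue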;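 as to mRNA expression level, #2 HY 18 hr: cell type #2 is fetal cardiomyocyte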;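 as to mRNA expression level, #2 HY 6 hr: cell type #2 is fetal cardiomyocyte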;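 as to mRNA expression level, #2 NO: cell type #2 is fetal cardiomyocyte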;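 as to mRNA expression level, #3 HY 6 hr: cell type #3 is human umbilical vein endothelial cells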;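 as to mRNA expression level, #3 NO: cell type #3 is human umbilical vein endothelial cells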;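 as to mRNA expression level, #4 HY 18 hr: cell type #4 is adult dermal fibroblast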;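 as to mRNA expression level, #4 HY 6 hr: cell type #4 is adult dermal fibroblast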;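 as to mRNA expression level, #4 NO: cell type #4 is adult dermal fibroblast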;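 as to mRNA expression level, #6 HY 6 hr: cell type #6 is blood-derived macrophage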;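 as to mRNA expression level, #6 NO: cell type #6 is blood-derived macrophage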
Format: cell-based
Details: for mRNA expression level, #1 HY 6 hr: cell type #1, hypoxia 6 hr; for mRNA expression level, #1 HY 18 hr: cell type #1, hypoxia 18 hr; for mRNA expression level, #1 NO: cell type #1, normoxia; for mRNA expression level, #2 HY 6 hr: cell type #2, hypoxia 6 hr; for mRNA expression level, #2 HY 18 hr: cell type #2, hypoxia 18 hr; for mRNA expression level, #2 NO: cell type #2, normoxia; for mRNA expression level, #3 HY 6 hr: cell type #3, hypoxia 6 hr; for mRNA expression level, #3 HY 18 hr: cell type #3, hypoxia 18 hr; for mRNA expression level, #3 NO: cell type #3, normoxia; for mRNA expression level, #4 HY 6 hr: cell type #4, hypoxia 6 hr; for mRNA expression level, #4 HY 18 hr: cell type #4, hypoxia 18 hr; for mRNA expression level, #4 NO: cell type #4, normoxia; for mRNA expression level, #5 HY 6 hr: cell type #5, hypoxia 6 hr; for mRNA expression level, #5 NO: cell type #5, normoxia; for mRNA expression level, #6 HY 6 hr: cell type #6, hypoxia 6 hr; for #6 HY 18 hr (mRNA expression level): cell type #6, hypoxia 18 hr; for mRNA expression level, #6 NO: cell type #6, normoxia; for #7 HY 6 hr (mRNA expression level): cell type #7, hypoxia 6 hr; for #7 HY 18 hr (mRNA expression level): cell type #7, hypoxia 18 hr; for #7 NO (mRNA expression level): cell type #7, normoxia; for #8 HY 6 hr (mRNA expression level): cell type #8, hypoxia 6 hr; for #8 HY 18 hr (mRNA expression level): cell type #8, hypoxia 18 hr; for #8 NO (mRNA expression level): cell type #8, normoxia; for #9 HY 6 hr (mRNA expression level): cell type #9, hypoxia 6 hr; for #9 HY 18 hr (mRNA expression level): cell type #9, hypoxia 18 hr; for #9 NO (mRNA expression level): cell type #9, normoxia; for #10 HY 6 hr (mRNA expression level): cell type #10, hypoxia 6 hr; for #10 HY 18 hr (mRNA expression level): cell type #10, hypoxia 18 hr; for #10 NO (mRNA expression level): cell type #10, normoxia; for #11 HY 6 hr (mRNA expression level): cell type #11, hypoxia 6 hr; for #11 HY 18 hr (mRNA expression level): cell type #11, hypoxia 18 hr; for #11 NO (mRNA expression level): cell type #11, normoxia
Procedure: Equivalent cultures of non-immortalized, non-transformed primary human cells of 10 distinct types, were cultured in either normoxia or were exposed to hypoxia for 6 hr and 18 hr, and gene expression changes were determined. […] Moreover, unlike the vast majority of information in the public domain relating to genes responsive to hypoxia, all of these cells were human and were cultured without any modifications following isolation from the human donors.
A non-primary cell type (#9) was used to represent neurons, since primary human neurons are difficult to source. Therefore a total of 11 cell types are compared. It should be noted that RNA from hepatocytes at the […] timepoint of hypoxia was not available for this work.
Each RNA sample was hybridised to duplicate or triplicate arrays, to ensure reproducible data, and was analysed using GeneSpring software. Data from replicate arrays were merged during analysis to generate mean values. Data normalisation was achieved per-array using the aforementioned list of control genes, such that differences in RNA labelling or hybridization due to experimental variation were corrected by referencing each gene to the mean value of the reference genes on the same array. Also, for each gene, expression values were obtained which represent the value in each experimental condition (e.g. macrophages 6 hr hypoxia) as compared to the median of value of that gene throughout the full range of experimental conditions (i.e. from all cell types). […] This is common in microarray data analysis.

[1] = hypoxia/normoxia induction ratio, 18 hr monocyte
[2] = cell type #1, HY (hypoxia) 6 hr
[3] = cell type #1, HY (hypoxia) 18 hr
[4] = cell type #2, HY (hypoxia) 6 hr
[5] = cell type #2, HY (hypoxia) 18 hr
[6] = cell type #3, HY (hypoxia) 6 hr
[7] = cell type #3, HY (hypoxia) 18 hr
[8] = cell type #4, HY (hypoxia) 6 hr
[9] = cell type #4, HY (hypoxia) 18 hr
[10] = cell type #5, HY (hypoxia) 6 hr
[11] = cell type #6, HY (hypoxia) 6 hr

B1: p1F1 (nucleic acid, listed as Homo Sapiens)
DNA: TTTGTGTGGTCTTTTTTTTTTTTTCTCAGTGTTTTCAATTCCTCCTTGGTTGAATCCATGGATGCAAAACCCACAGATATGAAGGGCTGGCTATATATGCATTGATGATTGTCCTATTATATTAGTTATAAAGTGTCATTTAATATGTAGTGAAAGTTATGGTACAGTGGAAAGAGTAGTTGAAAACATAAACATTTGGGCCTTTCAAGAAAGGTAGCTTGGTGAAGTTTTTCACCTTCAAACTATGTCCCAGTCAGGG
With B1 the “mRNA expression level, #1 HY 6 hr” value was 0.33, the “mRNA expression level, #1 HY 18 hr” value was 0.52 and the “mRNA expression level, #1 NO” value was 0.58. The “mRNA expression level, #2 HY 6 hr” value was 1.19, the “mRNA expression level, #2 HY 18 hr” value was 1.14 and the “mRNA expression level, #2 NO” value was 1.42. The “mRNA expression level, #3 HY 6 hr” value was 1.70, the “mRNA expression level, #3 HY 18 hr” value was 1.49 and the “mRNA expression level, #3 NO” value was 1.64. For the same molecule, the “mRNA expression level, #4 HY 6 hr” value was 0.63, the “mRNA expression level, #4 HY 18 hr” value was 0.54 and the “mRNA expression level, #4 NO” value was 0.95. The “mRNA expression level, #5 HY 6 hr” value was 0.50, the “mRNA expression level, #5 NO” value was 0.37 and the “mRNA expression level, #6 HY 6 hr” value was 0.61. For the same molecule, the “#6 HY 18 hr (mRNA expression level)” value was 0.51, the “mRNA expression level, #6 NO” value was 0.62 and the “#7 HY 6 hr (mRNA expression level)” value was 0.90. For the same molecule, the “#7 HY 18 hr (mRNA expression level)” value was 0.30, the “#7 NO (mRNA expression level)” value was 0.91 and the “#8 HY 6 hr (mRNA expression level)” value was 0.53. The “#8 HY 18 hr (mRNA expression level)” value was 0.66, the “#8 NO (mRNA expression level)” value was 0.34 and the “#9 HY 6 hr (mRNA expression level)” value was 1.23. The “#9 HY 18 hr (mRNA expression level)” value was 1.06, the “#9 NO (mRNA expression level)” value was 1.66 and the “#10 HY 6 hr (mRNA expression level)” value was 1.58. For the same molecule, the “#10 HY 18 hr (mRNA expression level)” value was 1.03, the “#10 NO (mRNA expression level)” value was 1.46 and the “#11 HY 6 hr (mRNA expression level)” value was 1.24. For the same molecule, the “#11 HY 18 hr (mRNA expression level)” value was 1.06, the “#11 NO (mRNA expression level)” value was 1.25 and the “HIGHEST FOLD CHANGE IN HYPOXIA (hr hypoxia + cell type)” value (from here on “HIGHEST FOLD CHANGE IN HYPOXIA”) [1] was 1.96 (18 hr monocyte) fold.

B2: p1G21 (nucleic acid, listed as Homo Sapiens)
DNA: TTTTACATACTAGATTTATTAAAGTGACCATAAGTGCCGAAGCGGTTTTCTAATGGAAAGCAGACTGGATTCACAACACAGAAGCAGAATTGGTGGAACAGGCTTTCGGGAACTTTCTTCCCCTGGTCACACGGCAGATCGGTCCCCAAGGACAGGTGCTCAGCCAGGACTTTTGCTTTAAGAAGGATTTGTCTNGAGAAAGGACTAGAGAGAAATCCAGCTCAGATGTATTGCTCATTCCTCTTCAGAAGGACTGGGTNGGAATGGAGCAGGGGCTAGAGGAATCTGGAAGCTAATTCTTTTAGGCTTTTTCCAACAGAGGGAAGCAGAGGGACTTCTGGGTCTTGAAGTTTGGAGCTTACGGAGGCGA
modifications: misc_feature 195, 260: n = A,T,C or G
With B2 the “HIGHEST FOLD CHANGE IN HYPOXIA” value (DOWN, 6 hr macrophage) was 1.85 DOWN (6 hr macrophage) ^ fold, the mRNA expression level [2] was 1.01 and the mRNA expression level [3] was 0.55. The mRNA expression level (cell type #1, NO (normoxia)) was 0.99, the mRNA expression level [4] was 1.48 and the mRNA expression level [5] was 1.10. The mRNA expression level (cell type #2, NO (normoxia)) was 2.02, the mRNA expression level [6] was 1.13 and the mRNA expression level [7] was 0.80. The mRNA expression level (cell type #3, NO (normoxia)) was 1.54, the mRNA expression level [8] was 0.65 and the mRNA expression level [9] was 0.60. For the same molecule, the mRNA expression level (cell type #4, NO (normoxia)) was 0.78, the mRNA expression level [10] was 1.35 and the mRNA expression level (cell type #5, NO (normoxia)) was 0.72. The mRNA expression level [11] was 0.69 and the mRNA expression level (cell type #6, NO (normoxia)) was 1.28.

B3: p1G22 (nucleic acid, listed as Homo Sapiens)
DNA: TTTTTTTTTGTTTCTGTTTTGTTTTTTCTTTTGCACTGATATATACCATACCAACATTGCAAGATGCAAAGTGTGGAAACTGGAGTTTAAATAAAATTACAAGGCAAAACTACCCCATCCCAAGTGCGGTTGCTGTACATATCTACAGTACAATTTTTGGAATGTATTGCCATTTAAGAACATAGAAACTTTCTACAGACAATTTCACATACAGAATACGTACACCTTTTAGAAAAAAAGGCAAATATTTATCTTACAGAGAGCATTGTATTTTACATTTGCCTGCACGTTTCTTTTTTCTGTTTCTTTTCTTTCTTTCTTTTTTTACATACTAGGATTTATTAAAGTGACCATAAGGTGCCCGANGCGGGTTTTCTAATGGGNAAGCAGACTGGGNTTCACCAACACAGGNGCAGGATTGGGTGGGACAGGCTTTCGGGGACCTTTCTTCCCCTGGGNCACACGGGCAGATCCGGTCCCCAAGGGCAGGNTGTTCAGCCNGGGGCTTTTNCTTTT
modifications: misc_feature 366, 384, 397, 412, 459, 491, 501, 511: n = A,T,C or G
For B3, the “HIGHEST FOLD CHANGE IN HYPOXIA” value (DOWN, 18 hr mam epithelial) was 2.38 DOWN (18 hr mam epithelial) ^ fold, the mRNA expression level [2] was 0.78 and the mRNA expression level [3] was 0.72. For the same molecule, the mRNA expression level (cell type #1, NO (normoxia)) was 1.14, the mRNA expression level [4] was 2.67 and the mRNA expression level [5] was 1.41. For the same molecule, the mRNA expression level (cell type #2, NO (normoxia)) was 2.75, the mRNA expression level [6] was 12.7 and the mRNA expression level [7] was 8.79. For the same molecule, the mRNA expression level (cell type #3, NO (normoxia)) was 8.35, the mRNA expression level [8] was 1.21 and the mRNA expression level [9] was 1.01. It also gave a mRNA expression level (cell type #4, NO (normoxia)) of 1.35, a mRNA expression level [10] of 0.70 and a mRNA expression level (cell type #5, NO (normoxia)) of 0.59. For the same molecule, the mRNA expression level [11] was 0.63 and the mRNA expression level (cell type #6, NO (normoxia)) was 0.77.

B4: p1E9 (nucleic acid, listed as Homo Sapiens)
DNA: AGACCCCCCAGGGTGCCTCCGAGAGCTGCCTCACAGAGGACTCCGACCAGGGAGACCTTCCATCCTCCTCCACCTGTTCCACCCAGAGGACGCTGATTCCACCTCCTAAAACCTGCCTACTTCAGGACTTTAAGACTCACAGTCTTCAGCCTGTTAATGATGTCTTCATGTTGAGTTTTATAGCATGACTGTTGACCTTAAGATCCATTCTCATTGCTGATAATGCTGCAGCCCTGCTGGTTTGGGCTTGCTCGAAGATTTTATTAAGGCACGAAGAAGTGAAAAACTAAGGGCTTCATTCACCATCACCAAGTATATCGAACCATATACTTGTTTGCCAAAAGGGTGGAAGGACTTTAATTCGGAAATACTTTACCTCTTAATTTGGCCATATTCAGGAGGCCTAAAAGGATTGATCCNTAATGTTATTTCACCGTGGTTTTTATTGAATGG
modifications: misc_feature 420: n = A,T,C or G
For B4, the “mRNA expression level, #1 HY 6 hr” value was 0.89, the “mRNA expression level, #1 HY 18 hr” value was 1.48 and the “mRNA expression level, #1 NO” value was 1.54. For the same molecule, the “mRNA expression level, #2 HY 6 hr” value was 1.80, the “mRNA expression level, #2 HY 18 hr” value was 1.53 and the “mRNA expression level, #2 NO” value was 1.18. The “mRNA expression level, #3 HY 6 hr” value was 0.82, the “mRNA expression level, #3 HY 18 hr” value was 0.60 and the “mRNA expression level, #3 NO” value was 0.68. The “mRNA expression level, #4 HY 6 hr” value was 0.64, the “mRNA expression level, #4 HY 18 hr” value was 0.73 and the “mRNA expression level, #4 NO” value was 0.60. The “mRNA expression level, #5 HY 6 hr” value was 1.62, the “mRNA expression level, #5 NO” value was 0.92 and the “mRNA expression level, #6 HY 6 hr” value was 3.97. For the same molecule, the “#6 HY 18 hr (mRNA expression level)” value was 6.19, the “mRNA expression level, #6 NO” value was 4.20 and the “#7 HY 6 hr (mRNA expression level)” value was 0.42. The “#7 HY 18 hr (mRNA expression level)” value was 0.18, the “#7 NO (mRNA expression level)” value was 0.25 and the “#8 HY 6 hr (mRNA expression level)” value was 3.63. For the same molecule, the “#8 HY 18 hr (mRNA expression level)” value was 5.01, the “#8 NO (mRNA expression level)” value was 2.33 and the “#9 HY 6 hr (mRNA expression level)” value was 0.80. For the same molecule, the “#9 HY 18 hr (mRNA expression level)” value was 0.85, the “#9 NO (mRNA expression level)” value was 0.93 and the “#10 HY 6 hr (mRNA expression level)” value was 0.61. The “#10 HY 18 hr (mRNA expression level)” value was 0.61, the “#10 NO (mRNA expression level)” value was 0.57 and the “#11 HY 6 hr (mRNA expression level)” value was 1.37. For the same molecule, the “#11 HY 18 hr (mRNA expression level)” value was 1.17, the “#11 NO (mRNA expression level)” value was 1.58 and the “HIGHEST FOLD CHANGE IN HYPOXIA” value [1] was 2.15 (18 hr monocyte) fold.

Reference: US20030203372A1, “Analysis method” (priority 2000, published 2003)
